From FireProtDB (doi:10.1074/jbc.m110728200) come the findings set out here.

B1: Lysozyme C, P61626 (parent)
chain: MKALIVLGLVLLSVTVQGKVFERCELARTLKRLGMDGYRGISLANWMCLAKWESGYNTRATNYNAGDRSTDYGIFQINSRYWCNDGKTPGAVNACHLSCSALLQDNIADAVACAKRVVRDPQGIRAWVAWRNRCQNRDVRQYVQGCGV

One data set covers variants of B1. Conditions: Homo sapiens; pH 2.7; 64.9 °C; Thermal; DSC; Gly-HCl 0.05 M; structure 1LZ1; whole UniProt chain shown.
As for MKALIVLGLVLLSVTVQGKYFERCELARTLKRLGMDGYRGISLANWMCLAKWESGYNTRATNYNAGDRSTDYGIFQINSRYWCNDGKTPGAVNACHLSCSALLQDNIADAVACAKRVVRDPQGIRAWVAWRNRCQNRDVRQYVQGCGV [V20Y], the “heat capacity change of unfolding” value was 1.82 kcal/mol/K and the “unfolding enthalpy (calorimetric)” value worked out at 444 kJ/mol.
MKALIVLGLVLLSVTVQGKVFERCELARTLKRLGMDGYRGISLANWMCLAKWESGYNTRATNYNAGDRSTDYGIFQINSRYWCNDGKTPGAVNACHLSCSALLQDNIADAVACAKRVVRDPQGIRAWRAWRNRCQNRDVRQYVQGCGV [V128R]: the “ddG of mutation (higher = less stable)” value was -3.68 kJ/mol and the “unfolding enthalpy (calorimetric)” value came to 421 kJ/mol.
For MKALIVLGLVLLSVTVQGKVFERCELARTLKRLGMDGYRGISLANWMCLAKWESGYNTRATNYNAGDRSTDYGIFQINSRYWCNDGKTPGAVNACHLSCSALLQDNIADAVACAKRVVRDPQGIRAWYAWRNRCQNRDVRQYVQGCGV [V128Y], in that order: 0.586 kJ/mol and 451 kJ/mol.
As to MKALIVLGLVLLSVTVQGKVFERCELARTLKRLGMDGYRGISLANWMCLAKWESGYNTRATNYNAGDRSTDYGIFQINSRYWCNDGKTPGAYNACHLSCSALLQDNIADAVACAKRVVRDPQGIRAWVAWRNRCQNRDVRQYVQGCGV [V92Y], the “ddG of mutation (higher = less stable)” value amounted to 1 kJ/mol, the “heat capacity change of unfolding” value is 1.65 kcal/mol/K and the “unfolding enthalpy (calorimetric)” value came out at 446 kJ/mol.

The data set is the same for the next values; noted with them: Homo sapiens; pH 2.83; Thermal; DSC; Gly-HCl 0.05 M; structure 1LZ1; whole UniProt chain shown.
On to MKALIVLGLVLLSVTVQGKYFERCELARTLKRLGMDGYRGISLANWMCLAKWESGYNTRATNYNAGDRSTDYGIFQINSRYWCNDGKTPGAVNACHLSCSALLQDNIADAVACAKRVVRDPQGIRAWVAWRNRCQNRDVRQYVQGCGV [V20Y], for which the Tm amounted to 65.9 °C, the “unfolding enthalpy (calorimetric)” value was determined as 452 kJ/mol and the “unfolding enthalpy (van 't Hoff)” value came to 461 kJ/mol.

Still in this data set, the particulars now being: Homo sapiens; pH 2.91; Thermal; DSC; Gly-HCl 0.05 M; structure 1LZ1; whole UniProt chain shown.
Regarding MKALIVLGLVLLSVTVQGKYFERCELARTLKRLGMDGYRGISLANWMCLAKWESGYNTRATNYNAGDRSTDYGIFQINSRYWCNDGKTPGAVNACHLSCSALLQDNIADAVACAKRVVRDPQGIRAWVAWRNRCQNRDVRQYVQGCGV [V20Y], the Tm came to 67.4 °C, the “unfolding enthalpy (calorimetric)” value was 465 kJ/mol and the “unfolding enthalpy (van 't Hoff)” value is 469 kJ/mol.

The same data set, now with this note: Homo sapiens; pH 3.2; Thermal; DSC; Gly-HCl 0.05 M; structure 1LZ1; whole UniProt chain shown.
As for MKALIVLGLVLLSVTVQGKYFERCELARTLKRLGMDGYRGISLANWMCLAKWESGYNTRATNYNAGDRSTDYGIFQINSRYWCNDGKTPGAVNACHLSCSALLQDNIADAVACAKRVVRDPQGIRAWVAWRNRCQNRDVRQYVQGCGV [V20Y], the Tm worked out at 72.3 °C, the “unfolding enthalpy (calorimetric)” value amounted to 498 kJ/mol and the “unfolding enthalpy (van 't Hoff)” value worked out at 502 kJ/mol.

Staying with this data set, now noted: Homo sapiens; pH 3.21; Thermal; DSC; Gly-HCl 0.05 M; structure 1LZ1; whole UniProt chain shown.
As for MKALIVLGLVLLSVTVQGKYFERCELARTLKRLGMDGYRGISLANWMCLAKWESGYNTRATNYNAGDRSTDYGIFQINSRYWCNDGKTPGAVNACHLSCSALLQDNIADAVACAKRVVRDPQGIRAWVAWRNRCQNRDVRQYVQGCGV [V20Y], the Tm was determined as 72 °C, the “unfolding enthalpy (calorimetric)” value amounted to 502 kJ/mol and the “unfolding enthalpy (van 't Hoff)” value was determined as 502 kJ/mol.
Take MKALIVLGLVLLSVTVQGKVFERCELARTLKRLGMDGYRGISLANWMCLAKWESGYNTRATNYNAGDRSTDYGIFQINSRYWCNDGKTPGAYNACHLSCSALLQDNIADAVACAKRVVRDPQGIRAWVAWRNRCQNRDVRQYVQGCGV [V92Y]: the Tm was found to be 73.3 °C, the “unfolding enthalpy (calorimetric)” value was found to be 502 kJ/mol and the “unfolding enthalpy (van 't Hoff)” value came out at 502 kJ/mol.

The data set is the same for the next values; noted with them: Homo sapiens; pH 3.24; Thermal; DSC; Gly-HCl 0.05 M; structure 1LZ1; whole UniProt chain shown.
With MKALIVLGLVLLSVTVQGKYFERCELARTLKRLGMDGYRGISLANWMCLAKWESGYNTRATNYNAGDRSTDYGIFQINSRYWCNDGKTPGAVNACHLSCSALLQDNIADAVACAKRVVRDPQGIRAWVAWRNRCQNRDVRQYVQGCGV [V20Y], the Tm came out at 73 °C, the “unfolding enthalpy (calorimetric)” value is 507 kJ/mol and the “unfolding enthalpy (van 't Hoff)” value turned out to be 511 kJ/mol.

The same data set, now with this note: Homo sapiens; pH 2.7; Thermal; DSC; Gly-HCl 0.05 M; structure 1LZ1; whole UniProt chain shown.
MKALIVLGLVLLSVTVQGKVFERCELARTLKRLGMDGYRGISLANWMCLAKWESGYNTRATNYNAGDRSTDYGIFQINSRYWCNDGKTPGAVNACHLSCSALLQDNIADAVACAKRVVRDPQGIRAWRAWRNRCQNRDVRQYVQGCGV [V128R]: the Tm came out at 67.8 °C and the “change of melting temperature, mutant - wild type (higher = more stable)” value stood at 2.9 °C.
The like results for MKALIVLGLVLLSVTVQGKVFERCELARTLKRLGMDGYRGISLANWMCLAKWESGYNTRATNYNAGDRSTDYGIFQINSRYWCNDGKTPGAVNACHLSCSALLQDNIADAVACAKRVVRDPQGIRAWYAWRNRCQNRDVRQYVQGCGV [V128Y] were, in that order, 64.4 °C and -0.5 °C.
For MKALIVLGLVLLSVTVQGKVFERCELARTLKRLGMDGYRGISLANWMCLAKWESGYNTRATNYNAGDRSTDYGIFQINSRYWCNDGKTPGAYNACHLSCSALLQDNIADAVACAKRVVRDPQGIRAWVAWRNRCQNRDVRQYVQGCGV [V92Y], in that order: 64 °C and -0.9 °C.

Staying with this data set, now noted: Homo sapiens; pH 2.8; Thermal; DSC; Gly-HCl 0.05 M; structure 1LZ1; whole UniProt chain shown.
For the variant MKALIVLGLVLLSVTVQGKVFERCELARTLKRLGMDGYRGISLANWMCLAKWESGYNTRATNYNAGDRSTDYGIFQINSRYWCNDGKTPGAVNACHLSCSALLQDNIADAVACAKRVVRDPQGIRAWRAWRNRCQNRDVRQYVQGCGV [V128R], the Tm came out at 69.3 °C, the “unfolding enthalpy (calorimetric)” value came to 452 kJ/mol and the “unfolding enthalpy (van 't Hoff)” value was determined as 461 kJ/mol.

Still in this data set, the particulars now being: Homo sapiens; pH 3.01; Thermal; DSC; Gly-HCl 0.05 M; structure 1LZ1; whole UniProt chain shown.
With MKALIVLGLVLLSVTVQGKVFERCELARTLKRLGMDGYRGISLANWMCLAKWESGYNTRATNYNAGDRSTDYGIFQINSRYWCNDGKTPGAVNACHLSCSALLQDNIADAVACAKRVVRDPQGIRAWRAWRNRCQNRDVRQYVQGCGV [V128R], the Tm amounted to 72.8 °C, the “unfolding enthalpy (calorimetric)” value was 477 kJ/mol and the “unfolding enthalpy (van 't Hoff)” value turned out to be 486 kJ/mol.

Still in this data set, the particulars now being: Homo sapiens; pH 3.15; Thermal; DSC; Gly-HCl 0.05 M; structure 1LZ1; whole UniProt chain shown.
As for MKALIVLGLVLLSVTVQGKVFERCELARTLKRLGMDGYRGISLANWMCLAKWESGYNTRATNYNAGDRSTDYGIFQINSRYWCNDGKTPGAVNACHLSCSALLQDNIADAVACAKRVVRDPQGIRAWRAWRNRCQNRDVRQYVQGCGV [V128R], the Tm came out at 75 °C, the “unfolding enthalpy (calorimetric)” value stood at 490 kJ/mol and the “unfolding enthalpy (van 't Hoff)” value is 502 kJ/mol.

The same data set, now with this note: Homo sapiens; pH 2.66; Thermal; DSC; Gly-HCl 0.05 M; structure 1LZ1; whole UniProt chain shown.
In the case of MKALIVLGLVLLSVTVQGKVFERCELARTLKRLGMDGYRGISLANWMCLAKWESGYNTRATNYNAGDRSTDYGIFQINSRYWCNDGKTPGAVNACHLSCSALLQDNIADAVACAKRVVRDPQGIRAWYAWRNRCQNRDVRQYVQGCGV [V128Y], the Tm was found to be 63.3 °C, the “unfolding enthalpy (calorimetric)” value stood at 444 kJ/mol and the “unfolding enthalpy (van 't Hoff)” value stood at 440 kJ/mol.

The same data set, now with this note: Homo sapiens; pH 2.98; Thermal; DSC; Gly-HCl 0.05 M; structure 1LZ1; whole UniProt chain shown.
On to MKALIVLGLVLLSVTVQGKVFERCELARTLKRLGMDGYRGISLANWMCLAKWESGYNTRATNYNAGDRSTDYGIFQINSRYWCNDGKTPGAVNACHLSCSALLQDNIADAVACAKRVVRDPQGIRAWYAWRNRCQNRDVRQYVQGCGV [V128Y], for which the Tm was 69.3 °C, the “unfolding enthalpy (calorimetric)” value worked out at 477 kJ/mol and the “unfolding enthalpy (van 't Hoff)” value was determined as 477 kJ/mol.

The same data set, now with this note: Homo sapiens; pH 3.18; Thermal; DSC; Gly-HCl 0.05 M; structure 1LZ1; whole UniProt chain shown.
Take MKALIVLGLVLLSVTVQGKVFERCELARTLKRLGMDGYRGISLANWMCLAKWESGYNTRATNYNAGDRSTDYGIFQINSRYWCNDGKTPGAVNACHLSCSALLQDNIADAVACAKRVVRDPQGIRAWYAWRNRCQNRDVRQYVQGCGV [V128Y]: the Tm was found to be 72.2 °C, the “unfolding enthalpy (calorimetric)” value came out at 502 kJ/mol and the “unfolding enthalpy (van 't Hoff)” value was 507 kJ/mol.

The data set is the same for the next values; noted with them: Homo sapiens; pH 3.38; Thermal; DSC; Gly-HCl 0.05 M; structure 1LZ1; whole UniProt chain shown.
Turning to MKALIVLGLVLLSVTVQGKVFERCELARTLKRLGMDGYRGISLANWMCLAKWESGYNTRATNYNAGDRSTDYGIFQINSRYWCNDGKTPGAVNACHLSCSALLQDNIADAVACAKRVVRDPQGIRAWYAWRNRCQNRDVRQYVQGCGV [V128Y], the Tm was 75.4 °C, the “unfolding enthalpy (calorimetric)” value is 523 kJ/mol and the “unfolding enthalpy (van 't Hoff)” value was 523 kJ/mol.

The same data set, now with this note: Homo sapiens; pH 2.67; Thermal; DSC; Gly-HCl 0.05 M; structure 1LZ1; whole UniProt chain shown.
MKALIVLGLVLLSVTVQGKVFERCELARTLKRLGMDGYRGISLANWMCLAKWESGYNTRATNYNAGDRSTDYGIFQINSRYWCNDGKTPGAYNACHLSCSALLQDNIADAVACAKRVVRDPQGIRAWVAWRNRCQNRDVRQYVQGCGV [V92Y]: the Tm is 63.3 °C, the “unfolding enthalpy (calorimetric)” value was 435 kJ/mol and the “unfolding enthalpy (van 't Hoff)” value turned out to be 435 kJ/mol.

Staying with this data set, now noted: Homo sapiens; pH 3.02; Thermal; DSC; Gly-HCl 0.05 M; structure 1LZ1; whole UniProt chain shown.
For the variant MKALIVLGLVLLSVTVQGKVFERCELARTLKRLGMDGYRGISLANWMCLAKWESGYNTRATNYNAGDRSTDYGIFQINSRYWCNDGKTPGAYNACHLSCSALLQDNIADAVACAKRVVRDPQGIRAWVAWRNRCQNRDVRQYVQGCGV [V92Y], the Tm came out at 70 °C, the “unfolding enthalpy (calorimetric)” value was determined as 481 kJ/mol and the “unfolding enthalpy (van 't Hoff)” value is 486 kJ/mol.

The same data set, now with this note: Homo sapiens; pH 3.26; Thermal; DSC; Gly-HCl 0.05 M; structure 1LZ1; whole UniProt chain shown.
As for MKALIVLGLVLLSVTVQGKVFERCELARTLKRLGMDGYRGISLANWMCLAKWESGYNTRATNYNAGDRSTDYGIFQINSRYWCNDGKTPGAYNACHLSCSALLQDNIADAVACAKRVVRDPQGIRAWVAWRNRCQNRDVRQYVQGCGV [V92Y], the Tm stood at 74.1 °C, the “unfolding enthalpy (calorimetric)” value came to 511 kJ/mol and the “unfolding enthalpy (van 't Hoff)” value came out at 515 kJ/mol.
